Test results taken from the supplement of paper PMC10724198.
± gives the standard deviation of the averaged measurements.

Experiments:
Saccharomyces cerevisiae [1] = assay: protein stability index of tFT-peptide fusion (C-terminal peptide) (PSI (0-1 scale)); higher = more stable (slower turnover)
Protocol: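 MPS profiling in S. cerevisiae of the tFT-X12 degron library: putative degron peptides plus stable controls, 12 aa, fused to the C-terminus of a sfGFP-mCherry timer. Cells are FACS-sorted into 8 mCherry/sfGFP bins and deep-sequenced. PSI runs from 0 (unstable) to 1 (stable). Backgrounds are wild type, das1Δ and doa10Δ at 30 °C, and wild type, das1Δ, cdc34-1 and cdc53-1 at 37 °C; 2-3 technical replicates each.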

Saccharomyces cerevisiae [2] = assay: as above; conditions: genetic background: wild type; temperature: 30 C
[3] = genetic background: cdc34-1, temperature: 37 C
[4] = genetic background: cdc53-1, temperature: 37 C
[5] = genetic background: das1 deletion, temperature: 30 C
[6] = genetic background: das1 deletion, temperature: 37 C
[7] = genetic background: doa10 deletion, temperature: 30 C
[8] = genetic background: wild type, temperature: 30 C
[9] = genetic background: wild type, temperature: 37 C
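Note: PSI is a weighted mean of sequencing reads over stability bins, variants kept only with over 10 reads, mCherry proximal and sfGFP distal, peptide attached via GGGS linker.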

Sequence | protein stability index (Saccharomyces cerevisiae [1]; [3]) | protein stability index (Saccharomyces cerevisiae [1]; [4]) | protein stability index (Saccharomyces cerevisiae [1]; [5]) | protein stability index (Saccharomyces cerevisiae [1]; [6]) | protein stability index (Saccharomyces cerevisiae [1]; [7]) | protein stability index (Saccharomyces cerevisiae [1]; [8]) | protein stability index (Saccharomyces cerevisiae [1]; [9]) | protein stability index (Saccharomyces cerevisiae [2])
LFSIFMSYRVYI | 0.35 ± 0.037 | 0.435 ± 0.021 | 0.383 ± 0.07 | 0.486 ± 0.017 | 0.302 ± 0.03 | 0.312 ± 0.0037 | 0.44 ± 0.031 | 0.411 ± 0.02
LFSTRRWISVCA | 0.0208 ± 0.0016 | 0.0362 ± 0.013 | 0.134 ± 0.035 | 0.127 ± 0.011 | 0.0486 ± 0.012 | 0.054 ± 0.0027 | 0.0577 ± 0.015 | 0.0789 ± 0.016
LFSVLVFIYFVM | 0.102 ± 0.032 | 0.113 ± 0.017 | 0.169 ± 0.034 | 0.288 ± 0.07 | 0.17 ± 0.016 | 0.133 ± 0.0054 | 0.217 ± 0.025 | 0.127 ± 0.022
LFTSGNSLVLVH | 0.21126 ± 0.00018 | 0.257 ± 0.02 | 0.236 ± 0.037 | 0.3909 ± 0.00093 | 0.202 ± 0.0086 | 0.25 ± 0.034 | 0.362 ± 0.0076 | 0.365 ± 0.0042
LFYVSFLFMLLF | 0.359 ± 0.084 | 0.34751 ± 0.00024 | 0.363 ± 0.036 | 0.459 ± 0.025 | 0.396 ± 0.0059 | 0.325 ± 0.013 | 0.447 ± 0.029 | 0.378 ± 0.01
LGALFGRFWWYF | 0.664 ± 0.024 | 0.7416 ± 0.0074 | 0.654 ± 0.01 | 0.795 ± 0.013 | 0.278 ± 0.012 | 0.291 ± 0.023 | 0.541 ± 0.016 | 0.42 ± 0.027
LGCLVWGGVWGV | 0.706 ± 0.04 | 0.7595 ± 0.00079 | 0.625 ± 0.0078 | 0.737 ± 0.025 | 0.628 ± 0.021 | 0.638 ± 0.016 | 0.727 ± 0.041 | 0.479 ± 0.019
LGFSHTRAIFFV | 0.651 ± 0.039 | 0.7312 ± 0.0055 | 0.605 ± 0.012 | 0.724 ± 0.0022 | 0.186 ± 0.01 | 0.213 ± 0.0094 | 0.396 ± 0.0071 | 0.307 ± 0.011
LGGCVSYINLLA | 0.592 ± 0.032 | 0.682 ± 0.018 | 0.594 ± 0.022 | 0.6997 ± 0.0013 | 0.197 ± 0.024 | 0.236 ± 0.015 | 0.3917 ± 0.0035 | 0.308 ± 0.026
LGRFHLACLLFL | 0.588 ± 0.013 | 0.61417 ± 0.00036 | 0.486 ± 0.028 | 0.6113 ± 0.004 | 0.41 ± 0.0065 | 0.412 ± 0.035 | 0.543 ± 0.014 | 0.43 ± 0.048
LGVLVVAFCGGC | 0.488 ± 0.041 | 0.554 ± 0.0076 | 0.354 ± 0.034 | 0.541 ± 0.0069 | 0.325 ± 0.017 | 0.347 ± 0.023 | 0.5327 ± 0.00083 | 0.409 ± 0.031
LIICRSFLCKVR | 0.236 ± 0.026 | 0.2557 ± 0.0016 | 0.193 ± 0.029 | 0.369 ± 0.0059 | 0.16 ± 0.0049 | 0.174 ± 0.023 | 0.317 ± 0.0052 | 0.3 ± 0.01
LILIVVVAGSVG | 0.201 ± 0.019 | 0.392 ± 0.088 | 0.226 ± 0.027 | 0.437 ± 0.0066 | 0.206 ± 0.014 | 0.23 ± 0.013 | 0.385 ± 0.015 | 0.269 ± 0.038
LIMIRLLYLRLI | 0.166 ± 0.15 | 0.153 ± 0.042 | 0.269 ± 0.029 | 0.365 ± 0.022 | 0.105 ± 0.017 | 0.0628 ± 0.033 | 0.102 ± 0.0037 | 0.102 ± 0.035
LINHSWLLLSVL | 0.368 ± 0.017 | 0.432 ± 0.036 | 0.363 ± 0.038 | 0.521 ± 0.026 | 0.14246 ± 3.7e-05 | 0.133 ± 0.018 | 0.1583 ± 0.00095 | 0.325 ± 0.035
LLCSLGFRFSLF | 0.651 ± 0.033 | 0.728 ± 0.011 | 0.651 ± 0.019 | 0.725 ± 0.019 | 0.289 ± 0.0056 | 0.328 ± 0.044 | 0.546 ± 0.038 | 0.377 ± 0.034
LLFGCLIRIGCS | 0.268 ± 0.017 | 0.307 ± 0.012 | 0.244 ± 0.048 | 0.403 ± 0.021 | 0.225 ± 0.0046 | 0.253 ± 0.03 | 0.3638 ± 0.00063 | 0.35 ± 0.051
LLILSVRPFVFV | 0.479 ± 0.0094 | 0.52 ± 0.0072 | 0.397 ± 0.032 | 0.544 ± 0.0068 | 0.3727 ± 0.0033 | 0.367 ± 0.025 | 0.515 ± 0.022 | 0.43 ± 0.0067
LLLALLFWPCPI | 0.5178 ± 0.0016 | 0.526 ± 0.0074 | 0.402 ± 0.028 | 0.559 ± 0.037 | 0.396 ± 0.024 | 0.39 ± 0.038 | 0.518 ± 0.021 | 0.473 ± 0.02
LLLIGISFLIFY | 0.184 ± 0.048 | 0.287 ± 0.0035 | 0.208 ± 0.029 | 0.385 ± 0.008 | 0.199 ± 0.025 | 0.21 ± 0.025 | 0.335 ± 0.052 | 0.352 ± 0.05

Sequence | protein stability index (Saccharomyces cerevisiae [1]; [3]) | protein stability index (Saccharomyces cerevisiae [1]; [4]) | protein stability index (Saccharomyces cerevisiae [1]; [5]) | protein stability index (Saccharomyces cerevisiae [1]; [6]) | protein stability index (Saccharomyces cerevisiae [1]; [7]) | protein stability index (Saccharomyces cerevisiae [1]; [8]) | protein stability index (Saccharomyces cerevisiae [1]; [9]) | protein stability index (Saccharomyces cerevisiae [2])
LLLTAIRVLRMH | 0.561 ± 0.016 | 0.7045 ± 0.0038 | 0.587 ± 0.021 | 0.7177 ± 0.0014 | 0.118 ± 0.0018 | 0.149 ± 0.037 | 0.217 ± 0.033 | 0.169 ± 0.056
LLLVCYSTFIVA | 0.287 ± 0.057 | 0.359 ± 0.045 | 0.254 ± 0.04 | 0.3813 ± 0.0031 | 0.251 ± 0.011 | 0.28 ± 0.014 | 0.364 ± 0.0041 | 0.313 ± 0.026
LLLVPLLAFSAS | 0.56 ± 0.054 | 0.63 ± 0.029 | 0.473 ± 0.034 | 0.6084 ± 0.0031 | 0.462 ± 0.027 | 0.46 ± 0.019 | 0.598 ± 0.015 | 0.521 ± 0.035
LLMFWLSIWFWG | 0.22 ± 0.0092 | 0.292 ± 0.0066 | 0.245 ± 0.047 | 0.374 ± 0.008 | 0.268 ± 0.023 | 0.233 ± 0.037 | 0.3551 ± 0.0028 | 0.32 ± 0.035
LLPYSLSLALRA | 0.395 ± 0.0049 | 0.391 ± 0.015 | 0.314 ± 0.048 | 0.468 ± 0.0073 | 0.2604 ± 0.0023 | 0.28 ± 0.027 | 0.429 ± 0.015 | 0.412 ± 0.0096
LLSFSQLGYFVL | 0.634 ± 0.056 | 0.716 ± 0.012 | 0.633 ± 0.034 | 0.738 ± 0.023 | 0.13 ± 0.0051 | 0.152 ± 0.039 | 0.335 ± 0.027 | 0.212 ± 0.04
LLSGHFRLLLAF | 0.0523 ± 0.014 | 0.149 ± 0.007 | 0.178 ± 0.02 | 0.23 ± 0.013 | 0.0793 ± 0.0067 | 0.0945 ± 0.014 | 0.108 ± 0.02 | 0.136 ± 0.029
LLVCLGYFLFLG | 0.37 ± 0.025 | 0.372 ± 0.031 | 0.313 ± 0.024 | 0.484 ± 0.055 | 0.338 ± 0.0061 | 0.288 ± 0.051 | 0.453 ± 0.022 | 0.403 ± 0.0091
LNVEEGGGLENV | 0.698 ± 0.043 | 0.727 ± 0.023 | 0.631 ± 0.026 | 0.719 ± 0.024 | 0.661 ± 0.044 | 0.637 ± 0.044 | 0.699 ± 0.018 | 0.536 ± 0.1
LPHPLPFCFSLY | 0.711 ± 0.024 | 0.7672 ± 0.0058 | 0.672 ± 0.0085 | 0.7781 ± 0.0021 | 0.4271 ± 0.0037 | 0.451 ± 0.025 | 0.6683 ± 0.0063 | 0.515 ± 0.062
LPLLLFYLPIIW | 0.4647 ± 0.0038 | 0.479 ± 0.0079 | 0.401 ± 0.034 | 0.521 ± 0.0097 | 0.414 ± 0.0077 | 0.389 ± 0.034 | 0.4796 ± 0.0041 | 0.464 ± 0.03
LPPFLSSLPSSP | 0.715 ± 0.027 | 0.769 ± 0.016 | 0.66 ± 0.017 | 0.7635 ± 0.0039 | 0.668 ± 0.031 | 0.663 ± 0.011 | 0.732 ± 0.013 | 0.704 ± 0.019
LPPSPPAPLSRL | 0.906 ± 0.024 | 0.8918 ± 0.0015 | 0.81 ± 0.012 | 0.8616 ± 0.0061 | 0.804 ± 0.022 | 0.801 ± 0.019 | 0.8571 ± 0.005 | 0.804 ± 0.066
LQIKSFTSQRLA | 0.509 ± 0.021 | 0.698 ± 0.0074 | 0.6421 ± 0.0063 | 0.72398 ± 0.0003 | 0.0758 ± 0.016 | 0.0902 ± 0.037 | 0.0965 ± 0.038 | 0.158 ± 0.021
LRFMLLSFLVIL | 0.251 ± 0.021 | 0.207 ± 0.015 | 0.349 ± 0.034 | 0.429 ± 0.019 | 0.2402 ± 0.0023 | 0.176 ± 0.022 | 0.266 ± 0.01 | 0.234 ± 0.083
LRFVCALGYCVW | 0.577 ± 0.042 | 0.645 ± 0.019 | 0.485 ± 0.027 | 0.6011 ± 0.0042 | 0.443 ± 0.015 | 0.461 ± 0.029 | 0.574 ± 0.0089 | 0.471 ± 0.0098
LRNVPCLVFFWV | 0.5656 ± 0.0038 | 0.61 ± 0.025 | 0.439 ± 0.024 | 0.632 ± 0.011 | 0.334 ± 0.017 | 0.384 ± 0.03 | 0.631 ± 0.049 | 0.462 ± 0.048
LRSVLGWGLFLA | 0.45 ± 0.033 | 0.494 ± 0.014 | 0.493 ± 0.027 | 0.621 ± 0.0097 | 0.236 ± 0.0088 | 0.208 ± 0.021 | 0.422 ± 0.0078 | 0.325 ± 0.018
LSCFCLFCLSFC | 0.634 ± 0.053 | 0.678 ± 0.026 | 0.518 ± 0.036 | 0.663 ± 0.027 | 0.517 ± 0.039 | 0.496 ± 0.015 | 0.669 ± 0.0017 | 0.0626 ± 0.033
